Measurements as given in patent US20210063414A1, “METHODS FOR PREVENTING AND/OR TREATING BONE LOSS CONDITIONS BY MODULATING IRISIN” (Dana-Farber Cancer Institute, Inc., priority 2018, published 2021).

What was measured:
[1] = target: T1, integrin αV/β3 (Homo sapiens, UniProt P05106+P06756); assay: FAK phosphorylation in HEK293T cells with forced expression of integrin αV/β3; assay type: cell-based; settings: HEK293T with integrin αV/β3, vitronectin-coated plates
T1 construct: expressed in transfected cells; host or cells: HEK293T
T1 sequence (P06756 31-889 limits assumed): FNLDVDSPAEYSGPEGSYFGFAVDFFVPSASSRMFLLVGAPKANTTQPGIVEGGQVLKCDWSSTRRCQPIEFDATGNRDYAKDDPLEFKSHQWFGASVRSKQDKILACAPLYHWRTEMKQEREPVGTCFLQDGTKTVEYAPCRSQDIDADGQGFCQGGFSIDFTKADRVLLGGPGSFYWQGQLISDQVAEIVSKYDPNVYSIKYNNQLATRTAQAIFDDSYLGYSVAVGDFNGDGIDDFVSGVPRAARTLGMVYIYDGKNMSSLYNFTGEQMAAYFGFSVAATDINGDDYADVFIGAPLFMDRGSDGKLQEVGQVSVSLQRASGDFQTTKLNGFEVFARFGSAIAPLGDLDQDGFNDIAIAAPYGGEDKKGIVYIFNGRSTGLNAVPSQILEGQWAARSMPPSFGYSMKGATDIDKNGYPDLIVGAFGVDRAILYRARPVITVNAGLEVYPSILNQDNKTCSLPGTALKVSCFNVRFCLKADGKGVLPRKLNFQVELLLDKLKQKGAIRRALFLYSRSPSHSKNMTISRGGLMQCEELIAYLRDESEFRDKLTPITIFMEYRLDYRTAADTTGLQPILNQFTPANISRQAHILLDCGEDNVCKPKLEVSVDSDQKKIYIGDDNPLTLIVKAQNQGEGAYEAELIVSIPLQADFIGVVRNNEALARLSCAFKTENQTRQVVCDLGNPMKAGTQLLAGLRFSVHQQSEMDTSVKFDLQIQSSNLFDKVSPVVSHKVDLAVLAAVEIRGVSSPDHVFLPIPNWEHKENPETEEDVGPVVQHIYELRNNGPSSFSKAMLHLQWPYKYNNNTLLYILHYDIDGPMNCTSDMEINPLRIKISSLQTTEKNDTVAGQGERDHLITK
T1 sequence (P06756 891-1048 partner limits assumed): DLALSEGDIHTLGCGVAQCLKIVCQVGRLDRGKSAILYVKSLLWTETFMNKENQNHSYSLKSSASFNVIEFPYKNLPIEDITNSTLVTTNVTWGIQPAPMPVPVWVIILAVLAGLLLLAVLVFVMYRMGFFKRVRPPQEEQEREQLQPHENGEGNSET
T1 sequence (P05106 27-788): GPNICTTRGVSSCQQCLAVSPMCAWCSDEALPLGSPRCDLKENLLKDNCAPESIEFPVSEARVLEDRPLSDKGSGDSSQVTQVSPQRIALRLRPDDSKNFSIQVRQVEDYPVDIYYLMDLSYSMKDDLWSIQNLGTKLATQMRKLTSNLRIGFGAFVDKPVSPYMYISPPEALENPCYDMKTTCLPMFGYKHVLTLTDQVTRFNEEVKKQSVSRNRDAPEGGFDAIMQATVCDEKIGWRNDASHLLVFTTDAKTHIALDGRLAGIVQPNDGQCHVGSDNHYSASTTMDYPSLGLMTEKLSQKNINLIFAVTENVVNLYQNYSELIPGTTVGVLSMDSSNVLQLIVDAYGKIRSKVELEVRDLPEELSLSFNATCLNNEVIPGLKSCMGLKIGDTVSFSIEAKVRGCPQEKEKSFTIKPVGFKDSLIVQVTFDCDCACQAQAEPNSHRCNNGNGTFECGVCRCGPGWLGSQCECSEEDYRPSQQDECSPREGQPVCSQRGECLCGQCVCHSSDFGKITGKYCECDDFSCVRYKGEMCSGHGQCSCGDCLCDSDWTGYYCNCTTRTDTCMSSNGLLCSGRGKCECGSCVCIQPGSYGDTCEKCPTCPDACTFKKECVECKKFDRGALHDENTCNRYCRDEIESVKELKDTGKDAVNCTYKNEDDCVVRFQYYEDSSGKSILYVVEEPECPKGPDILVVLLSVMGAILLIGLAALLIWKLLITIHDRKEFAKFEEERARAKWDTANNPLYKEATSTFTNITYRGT
Experimental: 100 nM irisin was incubated with 5 nM indicated his-tag integrins followed by immunoprecipitation using Ni-NTA agaroses. Precipitated integrins and co-precipitated irisin were analyzed by immunoblot analysis. […] HEK293T cells were seeded and incubated until 50% cell density. The cells were transfected with 0.1 μg plasmids of indicated integrins. After 48 hours, the cells were incubated with Freestyle293 medium for 3 hours and were treated with indicated concentration of irisin for 5 minutes. Cells were lysed to detect the indicated protein level using immunoblot analysis. […] MLO-Y4 cells were treated as described in FIG. 2D with addition of pretreatment of indicated antagonistic antibodies for 10 minutes. Cells were lysed to detect the indicated protein level using immunoblot analysis. […] Sclerostin mRNA level was analyzed by qRT-PCR. […]
100 nM irisin was incubated with 5 nM indicated his-tag integrins followed by immunoprecipitation using Ni-NTA agaroses. Precipitated integrins and co-precipitated irisin were analyzed by immunoblot analysis. […] Cells were treated and analyzed as FIG. 14B except using plasmids encoding integrin α5/β1 or integrin α11/β1 (FIG. 15C) integrin αV/β1(FIG. 15D). […]
(§1) Cells were harvested in RIPA buffer containing protease-inhibitor cocktail and phosphataseinhibitor cocktail. […] Protein levels were analyzed via western blot using indicated antibody. […]

[2] = target: T2, integrin αV/β5 (Homo sapiens, UniProt P06756+P18084); assay: FAK phosphorylation in HEK293T cells with forced expression of integrin αV/β5; assay type: cell-based; settings: HEK293T with integrin αV/β5, vitronectin-coated plates
T2 construct: expressed in transfected cells; host or cells: HEK293T
T2 sequence (P06756 31-889 limits assumed): as the sequence (P06756 31-889 limits assumed) above
T2 sequence (P06756 891-1048 partner limits assumed): as the sequence (P06756 891-1048 partner limits assumed) above
T2 sequence (P18084 24-799): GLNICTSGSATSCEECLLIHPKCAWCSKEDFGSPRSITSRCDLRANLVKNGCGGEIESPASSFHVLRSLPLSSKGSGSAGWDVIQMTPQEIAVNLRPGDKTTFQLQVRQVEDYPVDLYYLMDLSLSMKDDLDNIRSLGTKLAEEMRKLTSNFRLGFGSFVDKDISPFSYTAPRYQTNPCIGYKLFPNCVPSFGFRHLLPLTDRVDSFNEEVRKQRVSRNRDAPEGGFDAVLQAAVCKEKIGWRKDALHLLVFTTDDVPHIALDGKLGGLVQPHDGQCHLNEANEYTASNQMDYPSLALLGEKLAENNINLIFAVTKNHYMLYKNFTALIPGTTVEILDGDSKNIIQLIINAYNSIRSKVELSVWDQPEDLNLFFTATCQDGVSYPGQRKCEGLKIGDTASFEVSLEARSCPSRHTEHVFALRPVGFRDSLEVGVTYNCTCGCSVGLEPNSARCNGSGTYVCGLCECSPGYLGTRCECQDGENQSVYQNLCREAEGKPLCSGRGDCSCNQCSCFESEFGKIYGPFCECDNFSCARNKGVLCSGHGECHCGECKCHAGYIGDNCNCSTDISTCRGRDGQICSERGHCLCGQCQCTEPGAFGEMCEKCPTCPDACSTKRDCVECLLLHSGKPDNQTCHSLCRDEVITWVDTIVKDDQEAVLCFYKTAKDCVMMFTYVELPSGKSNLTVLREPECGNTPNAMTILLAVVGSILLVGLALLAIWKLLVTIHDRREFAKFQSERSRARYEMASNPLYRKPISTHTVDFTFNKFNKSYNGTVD
Experimental: 100 nM irisin was incubated with 5 nM indicated his-tag integrins followed by immunoprecipitation using Ni-NTA agaroses. Precipitated integrins and co-precipitated irisin were analyzed by immunoblot analysis. […] HEK293T cells were seeded and incubated until 50% cell density. The cells were transfected with 0.1 μg plasmids of indicated integrins. After 48 hours, the cells were incubated with Freestyle293 medium for 3 hours and were treated with indicated concentration of irisin for 5 minutes. Cells were lysed to detect the indicated protein level using immunoblot analysis. […] MLO-Y4 cells were treated as described in FIG. 2D with addition of pretreatment of indicated antagonistic antibodies for 10 minutes. Cells were lysed to detect the indicated protein level using immunoblot analysis. […] MLO-Y4 cells were treated as described in FIG. 1B except with addition of the pretreatment of indicated antagonistic antibodies for 10 minutes. Sclerostin mRNA level was analyzed by qRT-PCR. Cyclophilin was used for house-keeping gene. […] The ribbon diagram is colored by HDX stabilization/destabilization. Percentages of deuterium differences are color-coded according to the smooth color gradient key at the bottom. Crystal structure of irisin dimer is from Protein Data Bank (PDB) (4 lsd) and a homology model of integrin β5 was built based on integrin β3 structure from PDB (4MMX).
100 nM irisin was incubated with 5 nM indicated his-tag integrins followed by immunoprecipitation using Ni-NTA agaroses. Precipitated integrins and co-precipitated irisin were analyzed by immunoblot analysis. […] HEK293T cells were seeded and incubated until 50% cell density. The cells were transfected with 0.1 μg plasmids of indicated integrins. After 48 hours, the cells were re-split to indicated dose of vitronectin-coated plates. Cells were incubated with culture medium for 3 hours. Cells were lysed to detect the indicated protein level using immunoblot analysis. FIG. 15C and FIG. 15D show the immunoblot data. Cells were treated and analyzed as FIG. 14B except using plasmids encoding integrin α5/β1 or integrin α11/β1 (FIG. 15C) integrin αV/β1(FIG. 15D).
MLO-Y4 cells were treated and analyzed as described in FIG. 5A with addition of pretreatment of control RGD peptide, cyclo RGDyK (cRGDyK), or SB273005. […] HEK293 cells were treated and analyzed as described in FIG. 14B except the treatment of different dose of cyclo RGDyK. […] 8 weeks old male mice were treated and analyzed as described in FIG. 5D except the additional group with co-injection of 1 mg/kg SB273005. […]
as §1

phosphorylation of FAK (positive control) [1]: induced phosphorylation of FAK | phosphorylation of FAK (positive control) [2]: induced phosphorylation of FAK
Substance: Vitronectin: a ligand for integrin αV family, positive control [reference compound]
